Source: paper PMC5308906 (2016)
No end group written: not given here.

Target: T1, ψIRS1-Cargo V5 (Homo sapiens, UniProt Q05655, not fully specified)
T1 chain: EKARLSYS
Assay: AGILE Dev Kit binding assay

B1: θPKC (protein)
chain: MSPFLRIGLSNFDCGSCQSCQGEAVNPYCAVLVKEYVESENGQMYIQKKPTMYPPWDSTFDAHINKGRVMQIIVKGKNVDLISETTVELYSLAERCRKNNGKTEIWLELKPQGRMLMNARYFLEMSDTKDMNEFETEGFFALHQRRGAIKQAKVHHVKCHEFTATFFPQPTFCSVCHEFVWGLNKQGYQCRQCNAAIHKKCIDKVIAKCTGSAINSRETMFHKERFKIDMPHRFKVYNYKSPTFCEHCGTLLWGLARQGLKCDACGMNVHHRCQTKVANLCGINQKLMAEALAMIESTQQARCLRDTEQIFREGPVEIGLPCSIKNEARPPCLPTPGKREPQGISWESPLDEVDKMCHLPEPELNKERPSLQIKLKIEDFILHKMLGKGSFGKVFLAEFKKTNQFFAIKALKKDVVLMDDDVECTMVEKRVLSLAWEHPFLTHMFCTFQTKENLFFVMEYLNGGDLMYHIQSCHKFDLSRATFYAAEIILGLQFLHSKGIVYRDLKLDNILLDKDGHIKIADFGMCKENMLGDAKTNTFCGTPDYIAPEILLGQKYNHSVDWWSFGVLLYEMLIGQSPFHGQDEEELFHSIRMDNPFYPRWLEKEAKDLLVKLFVREPEKRLGVRGDIRQHPLFREINWEELERKEIDPPFRPKVKSPFDCSNFDKEFLNEKPRLSFADRALINSMDQNMFRNFSFMNPGMERLIS
Binder B1 has a Kd of 200 nM.
